Experiments:
[1] = biological target: T1, MalFGK2 (Escherichia coli, UniProt P68187); details: APEX2-MSP1D1 nanodiscs; MalE and maltose
T1 construct: gene malK

[2] = biological target: vesicle (v-) SNAREs reconstituted in APEX2-MSP1D1 nanodiscs (UniProt P63045); assay: proximity labelling; nanodisc-ID: liposomes harboring t-SNAREs incubated with APEX2-MSP1D1 nanodiscs bearing v-SNAREs, with syt1-Ca2+; PL efficiency of t-SNAREs against v-SNARE nanodisc concentration; PBS, room temp; one-site fit; apparent
[3] = biological target: vesicle (v-) SNAREs reconstituted in APEX2-MSP1D1 nanodiscs (UniProt P63045); assay: proximity labelling; nanodisc-ID: liposomes harboring t-SNAREs incubated with APEX2-MSP1D1 nanodiscs bearing v-SNAREs, without syt1-Ca2+; PL efficiency of t-SNAREs against v-SNARE nanodisc concentration; PBS, room temp; one-site fit; apparent
[4] = biological target: vesicle (v-) SNAREs reconstituted in APEX2-MSP1D1 nanodiscs (UniProt P63045); assay: as above; remark: listed apart in the source

T1 sequence (P68187 whole entry): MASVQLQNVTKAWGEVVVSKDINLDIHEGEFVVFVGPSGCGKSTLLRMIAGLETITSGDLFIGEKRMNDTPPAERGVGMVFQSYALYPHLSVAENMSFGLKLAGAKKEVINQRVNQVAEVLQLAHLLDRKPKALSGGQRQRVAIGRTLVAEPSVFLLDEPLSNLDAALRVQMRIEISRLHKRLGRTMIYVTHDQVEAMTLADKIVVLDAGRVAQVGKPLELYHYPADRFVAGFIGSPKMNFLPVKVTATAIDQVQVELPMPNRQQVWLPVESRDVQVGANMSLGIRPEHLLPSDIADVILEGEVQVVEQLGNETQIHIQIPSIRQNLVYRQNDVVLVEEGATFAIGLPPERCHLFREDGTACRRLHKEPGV
T1 sequence (P02916 whole entry, further chain): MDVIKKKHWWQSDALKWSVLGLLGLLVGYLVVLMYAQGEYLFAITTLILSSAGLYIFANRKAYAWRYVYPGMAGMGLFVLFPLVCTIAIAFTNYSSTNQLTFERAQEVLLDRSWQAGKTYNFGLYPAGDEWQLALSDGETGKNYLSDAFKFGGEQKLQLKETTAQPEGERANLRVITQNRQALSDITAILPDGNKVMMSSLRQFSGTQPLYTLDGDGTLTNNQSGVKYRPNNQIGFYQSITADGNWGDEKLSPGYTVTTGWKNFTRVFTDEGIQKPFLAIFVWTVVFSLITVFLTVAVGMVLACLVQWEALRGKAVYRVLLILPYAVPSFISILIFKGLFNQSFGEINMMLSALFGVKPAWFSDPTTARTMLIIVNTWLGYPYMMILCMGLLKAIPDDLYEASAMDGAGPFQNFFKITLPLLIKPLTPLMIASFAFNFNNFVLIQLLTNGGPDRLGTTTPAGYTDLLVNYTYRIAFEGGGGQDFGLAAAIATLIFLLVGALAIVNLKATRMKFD
T1 sequence (P68183 whole entry, further chain): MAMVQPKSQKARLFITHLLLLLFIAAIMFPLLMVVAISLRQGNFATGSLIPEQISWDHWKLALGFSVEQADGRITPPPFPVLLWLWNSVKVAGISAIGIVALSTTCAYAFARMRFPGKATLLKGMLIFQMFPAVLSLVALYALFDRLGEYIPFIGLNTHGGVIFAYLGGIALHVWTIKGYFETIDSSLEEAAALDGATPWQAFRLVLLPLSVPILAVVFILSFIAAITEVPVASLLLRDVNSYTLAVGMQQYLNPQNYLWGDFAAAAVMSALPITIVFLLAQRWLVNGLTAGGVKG

Kd [2] [nM] | Kd [3] [nM] | Kd [4] [nM] | Compound | photo-colorimetric ATPase assay [1]
 |  |  | Nc1ncnc2c1ncn2[C@@H]1O[C@H](COP(=O)(O)OP(=O)(O)OP(=O)(O)O)[C@@H](O)[C@H]1O [ATP] | the ATPase activity of MalFGK2 was responding to the addition of MalE and maltose
86 | 2800 | 2600 | target (t-) membrane SNAREs embedded in liposomes (complex) | 

— paper PMC8087782, “Developing Nanodisc-ID for label-free characterizations of membrane proteins” (Communications Biology, 2021)
